Where a chain is given by its changes, count along the chain named.
T1: C4b-Binding Protein (UniProt P04003 49-597; P20851 18-252)
T1 construct: Bought protein; also called C4BP; C4b-BP
T1 sequence (looked up) 1: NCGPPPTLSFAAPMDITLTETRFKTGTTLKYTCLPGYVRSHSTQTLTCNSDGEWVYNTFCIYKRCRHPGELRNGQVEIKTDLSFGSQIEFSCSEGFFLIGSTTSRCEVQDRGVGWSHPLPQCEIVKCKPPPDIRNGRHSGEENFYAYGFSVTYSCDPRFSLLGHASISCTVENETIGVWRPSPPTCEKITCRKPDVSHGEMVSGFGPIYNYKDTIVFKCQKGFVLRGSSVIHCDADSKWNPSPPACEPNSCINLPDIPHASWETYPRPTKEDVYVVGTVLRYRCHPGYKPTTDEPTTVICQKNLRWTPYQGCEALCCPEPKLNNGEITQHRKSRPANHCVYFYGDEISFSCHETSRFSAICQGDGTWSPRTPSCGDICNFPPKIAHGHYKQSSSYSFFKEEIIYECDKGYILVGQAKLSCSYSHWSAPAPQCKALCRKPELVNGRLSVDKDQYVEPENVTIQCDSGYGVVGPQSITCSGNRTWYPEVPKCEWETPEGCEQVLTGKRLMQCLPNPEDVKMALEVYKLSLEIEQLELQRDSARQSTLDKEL
T1 sequence (looked up) 2: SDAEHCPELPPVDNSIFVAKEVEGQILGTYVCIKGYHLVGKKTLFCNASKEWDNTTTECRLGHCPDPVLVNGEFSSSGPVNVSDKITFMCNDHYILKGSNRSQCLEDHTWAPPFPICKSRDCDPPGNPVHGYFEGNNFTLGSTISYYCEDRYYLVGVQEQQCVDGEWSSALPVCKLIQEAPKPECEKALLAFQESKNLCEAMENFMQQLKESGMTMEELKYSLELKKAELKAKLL

T2: Gla-domain deleted recombinant human Protein S (human, UniProt P07225 114-676)
T2 construct: also called hPS-dGla; desGla human Protein S
T2 sequence: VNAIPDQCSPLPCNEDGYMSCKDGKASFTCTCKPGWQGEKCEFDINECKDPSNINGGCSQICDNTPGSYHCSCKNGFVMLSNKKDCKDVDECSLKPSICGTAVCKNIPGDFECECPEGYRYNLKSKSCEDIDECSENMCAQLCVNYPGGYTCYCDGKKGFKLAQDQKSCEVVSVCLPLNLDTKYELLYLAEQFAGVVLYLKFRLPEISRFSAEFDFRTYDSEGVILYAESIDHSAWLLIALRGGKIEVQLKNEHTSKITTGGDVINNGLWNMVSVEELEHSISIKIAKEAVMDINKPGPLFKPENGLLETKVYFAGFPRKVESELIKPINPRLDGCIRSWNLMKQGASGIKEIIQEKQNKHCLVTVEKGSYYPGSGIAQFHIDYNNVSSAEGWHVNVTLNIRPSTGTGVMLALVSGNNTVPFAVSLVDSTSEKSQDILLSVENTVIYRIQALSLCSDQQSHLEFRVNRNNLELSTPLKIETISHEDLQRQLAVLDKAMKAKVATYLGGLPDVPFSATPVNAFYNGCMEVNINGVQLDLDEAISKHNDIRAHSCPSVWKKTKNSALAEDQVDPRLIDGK

T3: EGF1-4 domains of human Protein S with C-terminal HPC4 tag (human, UniProt P07225 114-286, partial hydroxylation of Asn or Asp in the EGF domains (detected by MS))
T3 construct: also called hEGF1-4; human Protein S EGF1-4
T3 sequence: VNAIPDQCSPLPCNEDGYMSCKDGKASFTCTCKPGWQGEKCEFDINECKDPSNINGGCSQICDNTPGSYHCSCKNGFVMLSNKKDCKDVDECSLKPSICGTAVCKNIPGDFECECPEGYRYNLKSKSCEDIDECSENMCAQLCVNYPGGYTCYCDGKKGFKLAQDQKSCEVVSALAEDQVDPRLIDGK

T4: EGF domain 3 and 4 of recombinant human Protein S (human, UniProt P07225 201-286, limits assumed)
T4 construct: domain: EGF domain 3 and 4; also called hEGF3-4
T4 sequence (looked up): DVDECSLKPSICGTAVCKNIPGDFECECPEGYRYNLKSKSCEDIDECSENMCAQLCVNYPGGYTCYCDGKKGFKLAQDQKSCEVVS

T5: EGF domain 1 and 2 of recombinant human Protein S (human, UniProt P07225 114-200, limits assumed)
T5 construct: domain: EGF domain 1 and 2; also called hEGF1-2
T5 sequence (looked up): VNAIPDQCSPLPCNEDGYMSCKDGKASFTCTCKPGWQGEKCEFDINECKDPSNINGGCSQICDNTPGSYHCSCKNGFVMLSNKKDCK

B1: human Protein S (plasma derived) (other)
chain: ANSLLEETKQGNLERECIEELCNKEEAREVFENDPETDYFYPKYLVCLRSFQTGLFTAARQSTNAYPDLRSCVNAIPDQCSPLPCNEDGYMSCKDGKASFTCTCKPGWQGEKCEFDINECKDPSNINGGCSQICDNTPGSYHCSCKNGFVMLSNKKDCKDVDECSLKPSICGTAVCKNIPGDFECECPEGYRYNLKSKSCEDIDECSENMCAQLCVNYPGGYTCYCDGKKGFKLAQDQKSCEVVSVCLPLNLDTKYELLYLAEQFAGVVLYLKFRLPEISRFSAEFDFRTYDSEGVILYAESIDHSAWLLIALRGGKIEVQLKNEHTSKITTGGDVINNGLWNMVSVEELEHSISIKIAKEAVMDINKPGPLFKPENGLLETKVYFAGFPRKVESELIKPINPRLDGCIRSWNLMKQGASGIKEIIQEKQNKHCLVTVEKGSYYPGSGIAQFHIDYNNVSSAEGWHVNVTLNIRPSTGTGVMLALVSGNNTVPFAVSLVDSTSEKSQDILLSVENTVIYRIQALSLCSDQQSHLEFRVNRNNLELSTPLKIETISHEDLQRQLAVLDKAMKAKVATYLGGLPDVPFSATPVNAFYNGCMEVNINGVQLDLDEAISKHNDIRAHSCPSVWKKTKNS
notes: Bought plasma-derived human Protein S (Haematologic Technologies or Enzyme Research Laboratories); also called Plasma PS; free Protein S
B2: M-hProtS-6F138A3 monoclonal antibody (antibody, V domains shown)
VH: QVHLKESGPGLVAPSQNLSITCTVSGFSLTGYGVSWVRQPPGKGLEWLGMIWGDGTTDYNSTLKSRLSISKDNSKSQVFLKMNSLQIDDTARYYCARDPGAMDYWGQGTSVTVSS
VL: QIVLTQSPAIMSASPGEKVTITCSATSSVTYMHWFQQKPGTSPKLWIFSTSNLASGVPPRFSGSGSGTSYSLTISRMEAEDAATYYCQQRSSYPPTFGGGTKLEIKR
notes: Mouse IgG1, kappa; also called 6F138A1/A3
B3: 0322-0000-0114 (antibody, V domains shown)
VH: EVKLEESGGGLVQPGGSMKLSCAASGFTFSDAWMDWVRQSPEKGLEWVAEIRSKANNHATYYAESVKGRFTISRDDSKSGVYLQMNSLRPEDTGIYYCTLTTAFLFDYWGQGTTLTVSS
VL: QIALTQSPAIMSASPGEKVTMTCSVSSSVSYMHWYQQKPGSSPRLWIYDTSNLVSGVPGRFSGSGSGTSYSLTLSSMEAEDAATYYCQQYSGYLYTFGGGTKLEIKR
notes: also called murine-human chimeric antibody of 2F4A1
B4: M-hProtS-2F4A1 monoclonal antibody (antibody, V domains shown)
VH: B3 VH
VL: B3 VL
notes: Mouse IgG1, kappa
B5: M-hProtS-6F170A2 monoclonal antibody (antibody, V domains shown)
VH: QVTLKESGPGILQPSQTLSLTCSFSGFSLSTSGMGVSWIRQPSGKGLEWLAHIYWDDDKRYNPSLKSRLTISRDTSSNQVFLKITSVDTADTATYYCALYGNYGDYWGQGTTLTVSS
VL: QIVLTQSPAIMSASPGEKVTMTCSASSSVSYMYWYQQKPGSSPRILIYDTSNLASGVPVRFSGSGSGTSYSLTISRMEAEDAATYYCQQWSSYPLTFGAGTKLELKR
notes: Mouse IgG1, kappa
B6: 0322-0000-1139 (Fab, V domains shown)
VH: QVQLQQPGAELVRPGASVKLSCKASGYTFTSYWINWVKQRPEQGLEWIGRIDPYDSETHYNQKFKDKAILTVDKSSSTAYMQLSSLTSEDSAVYYCARWGGSGYAMDYWGQGTSVTVSS
VL: QIVLSQSPAILSASPGEKVTMTCRASSSVSYMYWYQQKPGSSPKPWIYATSNLASGVPARFSGSGSGTSYSLTISRVEAEDAATYYCQQWSSIPPTFGGGTKLEIKR
notes: also called Fab 1139
B7: M-hProtS-2F82A1 monoclonal antibody (antibody, V domains shown)
VH: B6 VH with A9T, I34M, K38Q, S56T, K65E, G100A, G103S
VL: QIVLTQSPALMSASPGERVTMTCSASSSVSYMYWYQQKPRSSPKPWIYSTSNLASGVPARFSGSGSGTSYSLTISSMEAEDAATYYCQQWSSNPYTFGGGTKLEIKR
notes: Mouse IgG1, kappa; also called mAb 0017
B8: M-hProtS-3F2A1 monoclonal antibody (antibody, V domains shown)
VH: EVQLQESGPSLVKPSQTLSLTCSVTGDSITSGYWNWIRKFPGNKLEYMGYISFSGSTYYNPSLKSRISITRDTSKNQYYLQLNSVTTEDTATYYCAREFAYWGQGTLVTVSA
VL: DIVLTQSPATLSVTPGDSVSLSCRASQSISNNLHWYQQKSHESPRLLIKFVSQSISGIPSRFSGSGSGTDFTLSINSVETEDFGMYFCQQSNSWPWTFGGGTKLEIKR
notes: Mouse IgG1, kappa

Assays:
C4b-Binding Protein = molecular target: T1, C4b-Binding Protein; test: SPR (Biacore T200), C4BP captured by immobilized polyclonal anti-C4BP alpha chain antibody
Protocol: (§1) In brief, a polyclonal anti-C4BP antibody targeting the alpha chain (ab83755 from abcam) was immobilized on a CM5 Biacore sensor chip by standard amine coupling chemistry. […] The experiment was conducted in 10 mM Hepes, pH 7.4; 150 mM NaCl; 10 M CaCl₂ supplemented with 0.005% Tween20 and the chip was regenerated with glycine-HCl pH 1.7.

[1] = molecular target: T2, Gla-domain deleted recombinant human …; test: ELISA, recombinant antibody
[2] = molecular target: B1; test: ELISA, recombinant antibody
[3] = molecular target: T3, EGF1-4 domains of human Protein S with …; test: ELISA, recombinant antibody
[4] = molecular target: T4, EGF domain 3 and 4 of recombinant human …; test: ELISA, calcium-free TBS;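 further: binding of mouse antibodies detected by ELISA with an HRP-conjugated goat anti-mouse IgG secondary and TMB substrate development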
Protocol: (§2) After incubation and washing a HRP-labelled goat-anti-mouse IgG secondary antibody (Jackson) was added and the ELISA was developed after incubation and wash by addition of 3,3′,5,5′-Tetramethylbenzidine.

[5] = molecular target: T3, EGF1-4 domains of human Protein S with …; test: HX-MS, 4 uM EGF1-4 with 2.4 uM mAb
Protocol: The HX experiments were performed on a nanoACQUITY UPLC System with HDX Technology (Waters Inc.) coupled to a Synapt G2 mass spectrometer (Waters Inc.). The Waters HDX system contained a Leap robot (H/D-x PAL; Waters Inc.) operated by the LeapShell software (Leap Technologies Inc/Waters Inc.), which performed initiation of the deuterium exchange reaction, reaction time control, quench reaction, injection onto the UPLC system and digestion time control. The Leap robot was equipped with two temperature controlled stacks maintained at 20° C. for buffer storage and HX reactions and maintained at 2° C. for storage of protein and quench solution, respectively. The Waters HDX system furthermore contained a temperature controlled chamber holding the pre- and analytical columns, and the LC tubing and switching valves at 0.5° C. A separately temperature controlled chamber holds the pepsin column at 25° C. […] The resulting peptides were trapped and desalted on a VanGuard pre-column BEH C18 1.7 μm (2.1×5 mm (Waters Inc.)). Subsequently, the valves were switched to place the pre-column inline with the analytical column, UPLC-BEH C18 1.7 μm (1×100 mm (Waters Inc.)), and the peptides separated using a 9 min gradient of 10-50% B delivered at 40 μl/min from the nanoAQUITY UPLC system (Waters Inc.). The mobile phases consisted of A: 0.1% formic acid and B: 0.1% formic acid in CH₃CN. […]

[6] = molecular target: B1; test: SPR (Biacore 3000), Protein S captured on phosphatidylserine vesicles on L1 chip, mAb 250 nM
[7] = molecular target: T4, EGF domain 3 and 4 of recombinant human …; test: ELISA, recombinant antibody
[8] = molecular target: T2, Gla-domain deleted recombinant human …; test: ELISA, calcium-free TBS;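 further: binding of mouse antibodies detected by ELISA with an HRP-conjugated goat anti-mouse IgG secondary and TMB substrate development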
Protocol: as §2

[9] = molecular target: B1; test: ELISA, calcium-free TBS;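 further: binding of mouse antibodies detected by ELISA with an HRP-conjugated goat anti-mouse IgG secondary and TMB substrate development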
Protocol: as §2

[10] = molecular target: T3, EGF1-4 domains of human Protein S with …; test: ELISA, calcium-free TBS;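 further: binding of mouse antibodies detected by ELISA with an HRP-conjugated goat anti-mouse IgG secondary and TMB substrate development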
Protocol: as §2

[11] = molecular target: T5, EGF domain 1 and 2 of recombinant human …; test: ELISA, calcium-free TBS
Protocol: as §2

[12] = molecular target: B1; test: SPR (Biacore T200), Fab on Protein S captured on C4BP
Protocol: as §1

binding result [7] | binding result [8] | binding result [9] | binding result [10] | Binder | also measured
– | – | – | – | B1 | Kd (C4b-Binding Protein): 2 nM
– | – | – | – | B2 | binding result [1]: binds; binding result [2]: binds; binding result [3]: binds; binding result [4]: no binding
– | – | – | – | B3 | binding result [5]: binds; binding result [6]: binds
no binding | binds | binds | binds | B4 | –
– | – | – | – | B5 | binding result [1]: binds; binding result [2]: binds; binding result [3]: binds; binding result [11]: no binding
– | – | – | – | B6 | Kd [12]: 10 nM
no binding | binds | binds | binds | B7 | –
no binding | binds | binds | binds | B8 | –

Reference: US20160297892A1 (Novo Nordisk, published 2016)
